Measured values reported in the nanobody polyreactivity screen of Harvey et al. (2022).

Test: yeast display, Sf9 membrane polyspecificity reagent, FACS + sequencing; frameworks hold sequencing errors
How it was run: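 Galactose-induced (36–48 hours) yeast carrying a synthetic nanobody display library were exposed to 10% biotinylated, detergent-solubilized Sf9 membrane reagent at 4 °C for 1 hour. FACS followed streptavidin microbead enrichment, using low and high (top ~1%) gates for expression (anti-HA) and reagent binding (streptavidin). Colony PCR, MiSeq 2 × 250 sequencing and CDR-length filtering followed. Labels for polyreactivity reflect the gate of origin.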

Sequence | polyreactivity (PSR sort gate)
QVQLVESGGGLVQAGGRLRLSSAASGLTFPYYAMGWYRQAPGKERELVAVITTSTGTTYYADSVKGRFTISRDNAKNTVYLQMNSLKPEVTAVYYCATDTGAYWYSLYDYWGQGTQVTVSS | low polyreactivity
QVQLVESGGGLVQAGGRLRLSSAASGRIFASNAMGWYRQAPGKERELVARIDSGGITNYADSVKGRFTISRDNAKNTVYFQMNSLKPEDTGVYYCAKSVGWWSPPLGVYWVQGTQVTVSS | low polyreactivity
QVQLVESGGGLVQAGGRLRLSSAASGRTFYPNAMGWYRKAPLKERELVAAISGSGGSTYYADSVKGRFTISRDNAKNTVYLQMNSLKPEDTAVYYCAAYPEYLVGYRYGSWGQGTQVTVSS | high polyreactivity
QVQLVESGGGLVQAGGRLRLTCAASASIFYYYTMGWYRQAPGKERELVAAINSIGGRTYYADSVKGRFTISRDNAKNTVYLQMNSLKQEDNAVYYCNAVLDPGDQDDYDYWGQGTQVTLSS | low polyreactivity
QVQLVESGGGLVQAGGRLRLTCAASGYIFDVNAMGWYRHAPGKERELVAAISQRGTRTYYADSVKGRFTISRDNAKNSVYLQMNSLKPEDTAVYFCNRGGWRQYDSWVQGTQVTVSS | high polyreactivity
QVQLVESGGGLVQAGGRLSLSCAASGSIFNQYAMGWHRQAPGKERELVAAISSDGGRTYYADSVKGRFTISRDNAKITVYLQMNSLKPEDTAVYYCNADFPAYGLECDVYWGQGTQVTVSS | low polyreactivity
QVQLVESGGGLVQAGGRRRLICAASGSTFVRNAMGWYRQAPGKERELVATISSGGGTKYADSVKGRFTISRDNAKNTVYLQMNSLKPEDTAVYYCAARYRSYAVRLRGYDYWGQGTQVTVSS | high polyreactivity
QVQLVESGGGLVQAGGSGRLSCAASGRTTRDYAMGWYRQAPGKERELVAAIRWRGVSTYYADSVKGRFTISRDNAKNTVDVQMNSLKPEDTAVYYCAKRESVSTSAGKGAMDSWGQGTQVTVSS | high polyreactivity
QVQLVESGGGLVQAGGSGRLSCAASGSILPSYAMGWYRQAPGKERELVAAISRRGGSTYYADSVKGRFSISRDNAKNTVYLQMNSLKPEDTAVYYCAAGSYSGYDYWGQGTQVTVSS | low polyreactivity
QVQLVESGGGLVQAGGSHRFRCAASGSTIVSDAMGLYRHAPGKERELDATISWRGGSTYYADSVKGRFTISRDNAKNTVYLQMNSLKPEDTAVYDCAADLWHSQYYYGYEYWGQGTQVNVSS | low polyreactivity
QVQLVESGGGLVQAGGSHRLSCAASGFIFGRNAMGWYRQATGKDRELVDANTRSGGSTYYADSVKGRFTISRDNAKNTVYLQLYSLKPEDTAVYYCAKGLFTWGVFRVGIRDDYWGQGTQVTVSS | high polyreactivity
QVQLVESGGGLVQAGGSHRLSCAASGFTFTYYAMGWYRQAPGKERELVADITSGGGTNYADSVKGRFTISRDNAKNTVFLQMNSLKPEDTAVYYCAADAYHQGMDYWGQGTQVTVSS | low polyreactivity
QVQLVESGGGLVQAGGSHRLSCAASGGTFSNNAMGWYRQAPGKERELVAAISNSGGRTYYADSVKGRFTISRDNAKNTVYLQMNSLKPEDTAVYYCNARYRLMDYWGQGTQVTVSL | high polyreactivity
QVQLVESGGGLVQAGGSHRLSCAASGITFTVNSMGWYRQAPGKERELVAAISNDGSTYYADSVKGRFTISRDNAKNTVYLQMNSLKPEDTAVYYCAADTWDDFGPYGYDYWGQGTHVTVSS | low polyreactivity
QVQLVESGGGLVQAGGSHRLSCAASGLIFPYNAMGWYRQAPGKERELVAAIDSGVTTYYADSVKGRFTISRDNAKNTVYLQMNSLKPEDTAVYYCAADGLPGPEGDSWGQGTQVTVSS | low polyreactivity
QVQLVESGGGLVQAGGSHRLSCAASGLTFFTYAMGWYRQAPGKERELVATISSRGGRTYYADSVKGRFTISRDNAKNTVYLQMNSLKPEDTAVYYCAARGVWKSKHNYWGQGTQVTVSS | high polyreactivity
QVQLVESGGGLVQAGGSHRLSCAASGRIFDKNAMGWYRQAPGKERELVAAINRSGGRTYYADSVKGRFTISRDNAKNTVYLQMNSLKPEDTAVYYCAADTQGSRYDYWGQGTQVTVSS | high polyreactivity
QVQLVESGGGLVQAGGSHRLSCAASGRIFTSNTMGWYRQAPGKERELVAAITSSGGSMYYADSVKGRFTISRDNAKNTVYLQMNSLIPEDTAVYYCAADTIGYHYWYDYWGQGTQVTVSS | low polyreactivity
QVQLVESGGGLVQAGGSHRLSCAASGRIYYYTMGWYRQAPGKERELVATITSSGSSTYYADSVKGRFTISRDNAKNTFYLQLNRLKPEDTAVYYCAAAGGGVRKVWGGSRYGYWGQGTQVTVSS | high polyreactivity
QVQLVESGGGLVQAGGSHRLSCAASGRTFCKYAMGWYRQAPGKERELVAAITAGGGTKYADSVKGRFTISRDNAKNTVYLQMNSLKPEDTAVYYCAAASGSRRHGYWGQGTQVTVSS | high polyreactivity
QVQLVESGGGLVQAGGSHRLSCAASGRTFVVYAMGWYRQAPGKERELVARIRWRDVSTYYADSVKGRFTISRDNAKTTVYLQMNSLKPEDTAVYYCAARSYTGGGRLYYWGQGTQVTVSS | high polyreactivity
QVQLVESGGGLVQAGGSHRLSCAASGSIFFSNARGWYRQAPGNERELFAAITWTGGSTYYADSVKGRFTISRDNAKNTVYLQMNSLKPEDTAVYYCNAAHQRDWYYAIYHLYYSPYYYWGQGSQVTVSS | low polyreactivity

Sequence | polyreactivity (PSR sort gate)
QVQLVESGGGLVQAGGSHRLSCAASGSIFRQNAMGWYRQAPGKERELVAAITRGGGGTTYYADSVKGRFTISRDNAKNTVYLQMNSLKPEDTAVYYCAKAYEVRVEVDYWGQGTQVTVSS | low polyreactivity
QVQLVESGGGLVQAGGSHRLSCAASGSIFYFNAMGWYRQAPGKEREFVAGITTSGGSTYYADSVKGRFTISRDNAKNTVYLQMNSLKPEDTAVYYCNIVWVYAVTPSSWYKYGSWGQGTQVTVSS | low polyreactivity
QVQLVESGGGLVQAGGSHRLSCAASGSTFDTYPMGWYRQEPGKERELVAAISRSGTSTYYADSVKGRFTISRDNAKNTVYLQMKSLKPEDTAVYYCAAYGPRVNGEIGREYYYWGQGTQVTVSS | low polyreactivity
QVQLVESGGGLVQAGGSHRLSCAASGSTFFRNAKGWYSQAPGKEREWVAANSYSGDSTYYADSVKGRFTISRDNEKNTVSLQMNRLKPDDTAVYYSNAVLFRYRYNYWGQGTQVNVSS | high polyreactivity
QVQLVESGGGLVQAGGSHRLSCAASGSTFFSYAMGWYRQAPGKERELVAAITSNGGTTHYADSVKGRFTISRDNAKNTVYLQMNSLKPEDTAVYYCAKAQGHVRGSRGLQGGRYDYWGQGTQVTVSS | low polyreactivity
QVQLVESGGGLVQAGGSHRLSCAASGSTFVVYSLGWYRQAPGKERELVAAITSSGGRTYYADSVKGRFTISRDNAKNTVYLQMNSLKPDDTAVYYGNAVYSRQSSNKGEYWGQGTQVTVSW | high polyreactivity
QVQLVESGGGLVQAGGSHRLSCAASGTFKAYAMGWYRQAPGKERELVAVISNGGSTYYADSVKGRFTISRDNAKNTVYLQMNSLKPEDTAVYYCAARRGWYAYRFLSGSRLHYYWGQGTQVTVSS | high polyreactivity
QVQLVESGGGLVQAGGSHRLSCAASRRIFGYNAMGWYRKAPGKERELVAAIRYSGGRTYYADSVKGRFTISRDNAKNTVYLQMNSLKPEDTAVYYCAATAFDKLKVWYYYWGQGTQVTVSS | high polyreactivity
QVQLVESGGGLVQAGGSHRLSCAAYGYTIPFYTMGWYRQAPGKERDLVAAINSGGSTYYADSVKGRFTISRDNAKNTVYLQMNTLKPEDTAVYYCAVEGGFRVRYQAQYRYYYWGQGTQVIVSS | high polyreactivity
QVQLVESGGGLVQAGGSHRLSCASSGIIFAWYVMGWSRQAPGKDSELVAAITQSGGSTFYADSVKGRFTISRDNAKNTVYLQMNSLKPEDTEVYYCNTEDFFNVPEMDSWGQGTQVTVSS | low polyreactivity
QVQLVESGGGLVQAGGSHRLSCSGSGFSLTLNAMGWYRQAPGKERELVAAISGNGGRTYYADSVKGRFTISRDNAKNTVYLQMNSLKPEDTAVYYCAARYTRTPSDCSTRKFGYGYWGQRTQVTVSS | high polyreactivity
QVQLVESGGGLVQAGGSILLICSASGGNFYVYSMGWYRQAPGKERELVAAIRYSGGSTCYADSVKGRFTISRDNAKNTVYLLMNSLKTEYTAVYYCATVGWPFYPARDYDYSGQGTQVTVSS | low polyreactivity
QVQLVESGGGLVQAGGSILLSCAASGSIYGTNTMGWYRQAPGKEREFVAVITGSTTSTYYADSVKGLFTISRDNAKNTVYLQMNSLKPEDTAVYYCATDYWWDLFEYDYWGQGTQVTVSS | high polyreactivity
QVQLVESGGGLVQAGGSIRISCAPSGRTFNYYAIGWNRPAPAQEREFVAAITKSCGSTYYADSVKGRFTISRDNAKYTVYLQMNSVKPEDTAVYYCATTHRYRVVYWRQGTQVTVSS | high polyreactivity
QVQLVESGGGLVQAGGSIRISCEASGITFGRNPMGCDRQAPGKERELVDAIDSGGNTYADSVKGRFTISRDNAKNTFYLQMNRLIPEDTAVYYCAVDGGEFSSYGYWGQGTQVTVSS | low polyreactivity
QVQLVESGGGLVQAGGSIRLICAASGFIISWYAMGWYRQAPGKERELFAAISSGGSTTYADSVKGRFTISRDNAKNTVYLQMNSLKPEDTAVYYCNADQVYGYNYWGQGTQVTVSS | high polyreactivity
QVQLVESGGGLVQAGGSIRLICAASGRNYAVYAMGWYRQAPGKERELVAAITYGGGRTYYADSVKGRFTISRDNEKNTVYLKLNSMNPEDTAVYFCAADYFGTDYDYWGQGTHVTVSS | low polyreactivity
QVQLVESGGGLVQAGGSIRLICAASGRTFSRYAMGWYRQAPGKERELVAAITFRFGRTYYADSVKGRFTISRDNAKNTVYLQMNSMKPEDTSVYYCAAETKYSGAYPYDYWGQGTQVPVSS | high polyreactivity
QVQLVESGGGLVQAGGSIRLSCAASGFTFTRYTMGWYRQAPGKERELVARITRSGGSTYYADSVKGRFTISRDNAKNTVYLQMNSLKPEDTAVYDCAAGYVVATRYDYWGQGTQVTLSS | high polyreactivity
QVQLVESGGGLVQAGGSIRLSCAASGRIFRYYHMGWYRQAPGKERELVARISSTGRTYADSVKGRFTISRDNAKNSVYLQMYSLKPEDTAVYFCAALFHTRGHSKYDYWGQGTQVTVSS | high polyreactivity
QVQLVESGGGLVQAGGSIRLSCAASGRISAPNAMGWYRQAAVKERELVAAISSGGRTNYADSVKGRFTISRDNEKNTVYLQMNSLKPEDTAVYYCAAYYYNDRMYYWGQGNQVTVSS | high polyreactivity
